Test results taken from patent US20250122291A1 (CEPHALON, published 2025).

T1: hp75NTR-His (human, UniProt P08138 29-250)
T1 construct: extracellular domain; Immobilised on a CM5 chip by amine coupling; also called human p75NTR
T1 sequence (looked up): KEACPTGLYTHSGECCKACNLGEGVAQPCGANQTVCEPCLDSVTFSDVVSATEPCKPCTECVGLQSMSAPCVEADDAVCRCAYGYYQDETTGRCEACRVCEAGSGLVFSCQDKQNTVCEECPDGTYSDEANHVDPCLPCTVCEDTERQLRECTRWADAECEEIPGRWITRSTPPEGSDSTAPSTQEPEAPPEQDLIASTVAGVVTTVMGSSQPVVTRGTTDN


Tests used:
[1] = target: native rat TrkA on PC12 cells (rat, UniProt P35739 33-799); assay: cell-based or functional assay
[2] = target: T2, hTrkB-Extracellular Domain-poly C-terminal Histidine tagged (human, UniProt Q16620 32-430); assay: SPR, target amine-coupled on CM5 chip, 25 C, pH 7.4
T2 construct: extracellular domain; Immobilised on a CM5 chip by amine coupling; also called hTrkB-ECD-His; human TrkB

[3] = target: T3, hTrkC-ECD-His (human, UniProt Q16288 32-429); assay: as above
T3 construct: extracellular domain; Immobilised on a CM5 chip by amine coupling; also called human TrkC

[4] = target: T1, hp75NTR-His; assay: as above
[5] = target: T4, native human TrkA expressed endogenously on SH-SY5Y cells (human, UniProt P04629 33-796); assay: flow cytometry on SH-SY5Y cells, anti-human IgG Fc secondary, MFI, average of three experiments
T4 construct: whole, on cells

[6] = target: T5, recombinant human TrkA (human, UniProt P04629 33-423, limits assumed); assay: SPR, antibody captured on protein A chip, TrkA as analyte, single concentration, 1:1 model
T5 construct: also called hTrkA
T5 sequence (P04629 33-423 limits assumed): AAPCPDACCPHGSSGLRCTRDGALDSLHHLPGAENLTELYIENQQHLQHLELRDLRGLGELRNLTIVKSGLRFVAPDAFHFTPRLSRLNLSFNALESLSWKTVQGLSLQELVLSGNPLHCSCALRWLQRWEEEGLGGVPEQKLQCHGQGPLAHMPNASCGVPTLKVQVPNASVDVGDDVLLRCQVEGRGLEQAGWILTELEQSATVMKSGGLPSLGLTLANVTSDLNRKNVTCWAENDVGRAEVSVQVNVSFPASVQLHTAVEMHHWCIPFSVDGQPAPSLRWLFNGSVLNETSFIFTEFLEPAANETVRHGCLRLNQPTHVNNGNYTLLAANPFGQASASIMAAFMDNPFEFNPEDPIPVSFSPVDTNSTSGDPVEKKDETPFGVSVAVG

native rat TrkA on PC12 cells, sequence (P35739 33-799): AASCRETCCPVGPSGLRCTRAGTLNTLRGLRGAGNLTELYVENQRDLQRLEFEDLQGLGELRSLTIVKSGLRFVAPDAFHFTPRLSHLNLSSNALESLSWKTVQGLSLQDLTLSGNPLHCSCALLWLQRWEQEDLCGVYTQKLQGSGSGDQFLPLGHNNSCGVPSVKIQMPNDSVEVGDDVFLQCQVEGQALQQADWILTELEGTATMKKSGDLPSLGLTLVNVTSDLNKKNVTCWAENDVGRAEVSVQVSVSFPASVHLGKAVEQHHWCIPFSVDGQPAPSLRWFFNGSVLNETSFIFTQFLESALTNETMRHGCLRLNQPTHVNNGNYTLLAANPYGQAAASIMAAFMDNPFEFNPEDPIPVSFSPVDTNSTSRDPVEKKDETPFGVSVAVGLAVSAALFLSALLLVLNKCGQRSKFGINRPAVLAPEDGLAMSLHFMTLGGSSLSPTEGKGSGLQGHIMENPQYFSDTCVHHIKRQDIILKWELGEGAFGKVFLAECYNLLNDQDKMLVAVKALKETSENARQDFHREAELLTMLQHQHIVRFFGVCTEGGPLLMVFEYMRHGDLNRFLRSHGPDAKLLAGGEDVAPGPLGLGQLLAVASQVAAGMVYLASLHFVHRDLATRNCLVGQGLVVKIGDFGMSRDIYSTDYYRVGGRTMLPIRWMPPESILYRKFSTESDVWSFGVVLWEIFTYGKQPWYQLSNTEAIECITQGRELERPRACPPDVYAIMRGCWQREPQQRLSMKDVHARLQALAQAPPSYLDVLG
T4 sequence (P04629 33-796): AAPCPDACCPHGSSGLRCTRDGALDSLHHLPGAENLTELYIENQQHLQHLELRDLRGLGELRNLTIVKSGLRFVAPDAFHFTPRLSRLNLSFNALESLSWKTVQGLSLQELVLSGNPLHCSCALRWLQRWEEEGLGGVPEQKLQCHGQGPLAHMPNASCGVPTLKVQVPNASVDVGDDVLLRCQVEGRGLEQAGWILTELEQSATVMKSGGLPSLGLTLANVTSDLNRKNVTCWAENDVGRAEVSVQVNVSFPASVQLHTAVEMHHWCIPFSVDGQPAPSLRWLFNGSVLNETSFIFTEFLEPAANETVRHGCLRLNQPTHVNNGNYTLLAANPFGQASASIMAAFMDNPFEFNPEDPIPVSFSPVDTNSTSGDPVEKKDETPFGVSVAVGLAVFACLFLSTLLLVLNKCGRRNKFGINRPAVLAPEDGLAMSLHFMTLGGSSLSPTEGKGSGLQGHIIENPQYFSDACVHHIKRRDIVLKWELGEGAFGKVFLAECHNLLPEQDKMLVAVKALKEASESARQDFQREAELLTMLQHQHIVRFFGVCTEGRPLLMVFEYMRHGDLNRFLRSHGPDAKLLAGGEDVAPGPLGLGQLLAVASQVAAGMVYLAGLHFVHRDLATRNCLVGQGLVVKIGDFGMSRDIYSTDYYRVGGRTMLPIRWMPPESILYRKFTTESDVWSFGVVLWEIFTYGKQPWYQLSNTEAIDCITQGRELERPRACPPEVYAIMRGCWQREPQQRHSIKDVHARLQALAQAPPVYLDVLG
T2 sequence (Q16620 32-430): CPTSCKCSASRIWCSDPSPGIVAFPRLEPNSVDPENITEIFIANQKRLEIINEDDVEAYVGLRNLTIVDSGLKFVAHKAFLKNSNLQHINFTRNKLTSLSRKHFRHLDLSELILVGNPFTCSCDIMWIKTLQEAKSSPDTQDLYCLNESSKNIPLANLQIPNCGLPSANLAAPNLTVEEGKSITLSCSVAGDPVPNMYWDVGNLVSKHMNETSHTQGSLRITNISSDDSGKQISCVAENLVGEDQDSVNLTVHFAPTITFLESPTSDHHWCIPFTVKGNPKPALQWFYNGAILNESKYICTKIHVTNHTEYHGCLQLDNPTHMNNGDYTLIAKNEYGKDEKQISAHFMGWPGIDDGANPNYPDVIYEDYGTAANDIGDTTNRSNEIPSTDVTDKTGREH

Akt phosphorylation in PC12 cells, EC50 [1] | Erk phosphorylation in PC12 cells, EC50 [1] | TrkA receptor phosphorylation in PC12 cells (AlphaLISA p-TrkA Tyr674/675), EC50 [1] | neurite outgrowth in PC12 cells at 138 hours, EC50 [1] | binding result [2] | binding result [3] | binding result [4] | EC50 [5] | Akt pathway activation (pEC50) [1] | Erk pathway activation (pEC50) [1] | Neurite outgrowth (pEC50) [1] | Kd [6] | koff [6] | kon [6] | Binder
501 pM | 540 pM | 341 pM | 85.8 pM | no binding (tested: 1 nM) | no binding (tested: 1 nM) | no binding (tested: 1 nM) | 275000 pM |  |  |  |  |  |  | anti-TrkA antibody Ab82, full length (antibody, V domains shown, also called full length Ab82; full-length antibody) VH: QVQLQESGPGLVKPSGTLSLTCAVSGGSISSSNWWTWVRQPPGKGLEWIGEIYHRGNRNYNPSLKSRVTISVDKSKNQFSLKLSSVTAADTAVYYCARAPWFDYWGQGTLVTVSS VL: SSELTQDPAVSVALGQTVRITCQGDALRSYYASWYQQKPGQAPVLVIYGKGNRPSGIPDRFSGSSSGNTASLTITGAQAEDEADYYCASQASSGNHLIFGGGTKLTVLG
 |  |  |  |  |  |  |  | 9.53 pEC50 | 9.54 pEC50 | 9.97 pEC50 | 999 pM | 0.000254 s⁻¹ |  | anti-TrkA antibody Ab142 (antibody, V domains shown) VH: EVQLQESGPGLVKPSGTLSLTCAVSGGSISSSNWWTWVRQPPGKGLEWIGEIYHRGNRNYNPSLKSRVTISVDKSKNQFSLKLSSVTAADTAVYYCARAPWFDYWGQGTLV VL: SSELTQDPAVSVALGQTVRITCQGLSLRSYYASWYQQKPGQAPVLVIYGKNKRPSGIPDRFSGSSSGNTASLTITGAQAEDEADYYCNSQASSGNHLIFGGGTKLT
 |  |  |  |  |  |  |  | 9.25 pEC50 | 9.11 pEC50 | 10.1 pEC50 | 1190 pM | 0.000314 s⁻¹ | 264000 M⁻¹ s⁻¹ | anti-TrkA antibody Ab147 (antibody, V domains shown) VH: EVQLQESGPGLVKPSGTLSLTCAVSGGSISSSNWWTWVRQPPGKGLEWIGEIYHRGNRNYNPSLKSRVTISVDKSKNQFSLKLSSVTAADTAVYYCARAPWFDYWGQGTLV VL: SSELTQDPAVSVALGQTVRITCQGLSLRSYYASWYQQKPGQAPVLVIYGKGNRPSGIPDRFSGSSSGNTASLTITGAQAEDEADYYCNSQDSSGNHLIFGGGTKLT
 |  |  |  |  |  |  |  | 9.68 pEC50 | 9.89 pEC50 | 10.1 pEC50 | 1500 pM | 0.000299 s⁻¹ |  | anti-TrkA antibody Ab145 (antibody, V domains shown) VH: EVQLQESGPGLVKPSGTLSLTCAVSGGSISSSNWWTWVRQPPGKGLEWIGEIYHRGNRNYNPSLKSRVTISVDKSKNQFSLKLSSVTAADTAVYYCARAPWFDYWGQGTLV VL: SSELTQDPAVSVALGQTVRITCQGLSLRSYYASWYQQKPGQAPVLVIYGKNKRPSGIPDRFSGSSSGNTASLTITGAQAEDEADYYCASQASSGNHLIFGGGTKLT
